Laboratory results published in article PMC10397247.
Each block holds one binder with its values, some of them ahead of it.

Experiments:
4H319-bN = target: T1, 4H319-bN; test: two-hybrid library CCNG1;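 further: natural log of median RNA to DNA barcode read ratio; higher means stronger binding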
T1 chain: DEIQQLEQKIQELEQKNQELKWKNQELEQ

4H3277-bN = target: T2, 4H3277-bN; test: two-hybrid library CCNG1;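 further: natural log of median RNA to DNA barcode read ratio; higher means stronger binding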
T2 chain: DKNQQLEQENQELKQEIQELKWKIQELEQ

4H348-bN = target: T3, 4H348-bN; test: two-hybrid library CCNG1;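 further: natural log of median RNA to DNA barcode read ratio; higher means stronger binding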
T3 chain: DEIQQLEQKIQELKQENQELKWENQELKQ

4H40-bN = target: T4, 4H40-bN; test: two-hybrid library CCNG1;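 further: natural log of median RNA to DNA barcode read ratio; higher means stronger binding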
T4 chain: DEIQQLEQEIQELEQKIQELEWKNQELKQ

4H477-bN = target: T5, 4H477-bN; test: two-hybrid library CCNG1
T5 chain: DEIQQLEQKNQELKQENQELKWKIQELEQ

4H492-bN = target: T6, 4H492-bN; test: two-hybrid library CCNG1
T6 chain: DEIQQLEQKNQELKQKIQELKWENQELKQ

4H741-bN = target: T7, 4H741-bN; test: two-hybrid library CCNG1
T7 chain: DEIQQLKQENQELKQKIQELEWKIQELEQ

O13-bS = target: T8, O13-bS; test: two-hybrid library CCNG1
T8 chain: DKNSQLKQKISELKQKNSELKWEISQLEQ

O15-bS = target: T9, O15-bS; test: two-hybrid library CCNG1
T9 chain: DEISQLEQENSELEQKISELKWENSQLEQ

O16-bS = target: T10, O16-bS; test: two-hybrid library CCNG1
T10 chain: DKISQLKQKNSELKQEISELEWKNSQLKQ

O2-bS = target: T11, O2-bS; test: two-hybrid library CCNG1
T11 chain: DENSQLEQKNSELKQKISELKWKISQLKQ

O3-bS = target: T12, O3-bS; test: two-hybrid library CCNG1
T12 chain: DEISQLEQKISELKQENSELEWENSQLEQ

O4-bS = target: T13, O4-bS; test: two-hybrid library CCNG1
T13 chain: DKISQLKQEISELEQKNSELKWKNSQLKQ

O5-bS = target: T14, O5-bS; test: two-hybrid library CCNG1
T14 chain: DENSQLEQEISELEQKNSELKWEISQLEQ

O6-bS = target: T15, O6-bS; test: two-hybrid library CCNG1
T15 chain: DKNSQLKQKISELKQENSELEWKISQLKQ

O7-bS = target: T16, O7-bS; test: two-hybrid library CCNG1
T16 chain: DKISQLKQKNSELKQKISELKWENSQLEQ

O8-bS = target: T17, O8-bS; test: two-hybrid library CCNG1
T17 chain: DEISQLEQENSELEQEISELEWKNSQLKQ

O9-bS = target: T18, O9-bS; test: two-hybrid library CCNG1
T18 chain: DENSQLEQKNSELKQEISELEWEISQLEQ

4H1449-AA = target: T19, 4H1449-AA; test: two-hybrid library CCmax
T19 chain: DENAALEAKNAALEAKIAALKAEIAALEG

4H1593-AA = target: T20, 4H1593-AA; test: two-hybrid library CCmax; conditions: mean of both orientations
T20 chain: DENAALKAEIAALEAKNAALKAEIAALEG

4H1878-AA = target: T21, 4H1878-AA; test: two-hybrid library CCmax; conditions: mean of both orientations
T21 chain: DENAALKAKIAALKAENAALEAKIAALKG

4H235-AA = target: T22, 4H235-AA; test: two-hybrid library CCmax; conditions: mean of both orientations
T22 chain: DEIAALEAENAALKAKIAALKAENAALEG

4H249-AA = target: T23, 4H249-AA; test: two-hybrid library CCmax; conditions: mean of both orientations
T23 chain: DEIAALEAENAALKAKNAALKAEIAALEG

4H2580-AA = target: T24, 4H2580-AA; test: two-hybrid library CCmax; conditions: mean of both orientations
T24 chain: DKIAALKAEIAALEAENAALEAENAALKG

4H2604-AA = target: T25, 4H2604-AA; test: two-hybrid library CCmax; conditions: mean of both orientations
T25 chain: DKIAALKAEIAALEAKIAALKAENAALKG

4H2621-AA = target: T26, 4H2621-AA; test: two-hybrid library CCmax; conditions: mean of both orientations
T26 chain: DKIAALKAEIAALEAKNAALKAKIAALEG

4H2760-AA = target: T27, 4H2760-AA; test: two-hybrid library CCmax; conditions: mean of both orientations
T27 chain: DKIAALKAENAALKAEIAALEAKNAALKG

4H2774-AA = target: T28, 4H2774-AA; test: two-hybrid library CCmax; conditions: mean of both orientations
T28 chain: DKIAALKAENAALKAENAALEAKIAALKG

4H2903-AA = target: T29, 4H2903-AA; test: two-hybrid library CCmax; conditions: mean of both orientations
T29 chain: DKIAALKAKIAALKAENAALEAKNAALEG

4H2947-AA = target: T30, 4H2947-AA; test: two-hybrid library CCmax; conditions: mean of both orientations
T30 chain: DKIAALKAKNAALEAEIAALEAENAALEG

4H2961-AA = target: T31, 4H2961-AA; test: two-hybrid library CCmax; conditions: mean of both orientations
T31 chain: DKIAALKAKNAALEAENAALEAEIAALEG

4H3049-AA = target: T32, 4H3049-AA; test: two-hybrid library CCmax; conditions: mean of both orientations
T32 chain: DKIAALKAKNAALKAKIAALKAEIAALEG

4H3094-AA = target: T33, 4H3094-AA; test: two-hybrid library CCmax; conditions: mean of both orientations
T33 chain: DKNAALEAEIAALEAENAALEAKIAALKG

4H324-AA = target: T34, 4H324-AA; test: two-hybrid library CCmax; conditions: mean of both orientations
T34 chain: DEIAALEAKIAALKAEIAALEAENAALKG

4H341-AA = target: T35, 4H341-AA; test: two-hybrid library CCmax
T35 chain: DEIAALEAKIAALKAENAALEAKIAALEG

4H3449-AA = target: T36, 4H3449-AA; test: two-hybrid library CCmax; conditions: mean of both orientations
T36 chain: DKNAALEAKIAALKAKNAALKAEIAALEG

4H3619-AA = target: T37, 4H3619-AA; test: two-hybrid library CCmax; conditions: mean of both orientations
T37 chain: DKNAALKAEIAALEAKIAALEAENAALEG

4H3629-AA = target: T38, 4H3629-AA; test: two-hybrid library CCmax; conditions: mean of both orientations
T38 chain: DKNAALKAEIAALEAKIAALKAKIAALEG

4H3777-AA = target: T39, 4H3777-AA; test: two-hybrid library CCmax; conditions: mean of both orientations
T39 chain: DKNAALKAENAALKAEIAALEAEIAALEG

4H380-AA = target: T40, 4H380-AA; test: two-hybrid library CCmax; conditions: mean of both orientations
T40 chain: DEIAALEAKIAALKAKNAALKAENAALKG

4H3915-AA = target: T41, 4H3915-AA; test: two-hybrid library CCmax; conditions: mean of both orientations
T41 chain: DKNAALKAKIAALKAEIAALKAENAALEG

4H3974-AA = target: T42, 4H3974-AA; test: two-hybrid library CCmax; conditions: mean of both orientations
T42 chain: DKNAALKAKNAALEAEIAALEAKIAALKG

4H432-AA = target: T43, 4H432-AA; test: two-hybrid library CCmax; conditions: mean of both orientations
T43 chain: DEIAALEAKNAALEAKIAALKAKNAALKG

4H446-AA = target: T44, 4H446-AA; test: two-hybrid library CCmax; conditions: mean of both orientations
T44 chain: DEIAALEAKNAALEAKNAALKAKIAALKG

4H63-AA = target: T45, 4H63-AA; test: two-hybrid library CCmax; conditions: mean of both orientations
T45 chain: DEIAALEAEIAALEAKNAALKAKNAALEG

P3SHb = target: T46, P3SHb; test: two-hybrid library CCNG1
T46 chain: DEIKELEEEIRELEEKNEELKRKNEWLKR

P4SHb = target: T47, P4SHb; test: two-hybrid library CCNG1
T47 chain: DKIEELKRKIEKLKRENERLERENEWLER

P5SHb = target: T48, P5SHb; test: two-hybrid library CCNG1
T48 chain: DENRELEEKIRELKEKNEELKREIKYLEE

P6SHb = target: T49, P6SHb; test: two-hybrid library CCNG1
T49 chain: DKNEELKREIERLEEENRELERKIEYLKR

P7SHb = target: T50, P7SHb; test: two-hybrid library CCNG1
T50 chain: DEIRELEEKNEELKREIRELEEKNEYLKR

P8SHb = target: T51, P8SHb; test: two-hybrid library CCNG1
T51 chain: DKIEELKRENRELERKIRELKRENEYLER

P9SHb = target: T52, P9SHb; test: two-hybrid library CCNG1
T52 chain: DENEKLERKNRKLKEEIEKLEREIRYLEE

N6-AA = target: T53, N6-AA; test: two-hybrid library CCmax
T53 chain: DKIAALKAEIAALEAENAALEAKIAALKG

- interaction score (4H319-bN): -0.057
- interaction score (4H3277-bN): -0.892
- interaction score (4H348-bN): -1.38
- interaction score (4H40-bN): 0.382
- interaction score (4H477-bN): 0.197
- interaction score (4H492-bN): -0.916
- interaction score (4H741-bN): -0.781
- interaction score (O13-bS): -2.53
Binder: DEIQQLEQKIQELEQKNQELKWKNQELEQ [4H319-bN]

- interaction score (O13-bS): -1.65
- interaction score (O15-bS): -2.27
- interaction score (O16-bS): -1.78
- interaction score (O2-bS): -0.819
- interaction score (O3-bS): -1.55
- interaction score (O4-bS): -2.17
- interaction score (O5-bS): -2.23
- interaction score (O6-bS): -0.545
- interaction score (O7-bS): -1.16
- interaction score (O8-bS): -1.08
- interaction score (O9-bS): -1.08
Binder: DKNSQLKQKISELKQKNSELKWEISQLEQ [O13-bS]

- interaction score (4H1449-AA): -0.875
- interaction score (4H1593-AA): -1.66
- interaction score (4H1878-AA): -1.34
- interaction score (4H235-AA): -1.93
- interaction score (4H249-AA): -1.66
- interaction score (4H2580-AA): -0.863
- interaction score (4H2604-AA): -0.197
- interaction score (4H2621-AA): -0.636
- interaction score (4H2760-AA): -1.16
- interaction score (4H2774-AA): -1.47
- interaction score (4H2903-AA): -1.54
- interaction score (4H2947-AA): -1.1
- interaction score (4H2961-AA): -1.66
- interaction score (4H3049-AA): -0.585
- interaction score (4H3094-AA): -1.53
- interaction score (4H324-AA): -0.72
- interaction score (4H341-AA): -1.74
- interaction score (4H3449-AA): -1.65
- interaction score (4H3619-AA): -1.1
- interaction score (4H3629-AA): -0.319
- interaction score (4H3777-AA): -0.635
- interaction score (4H380-AA): -1.53
- interaction score (4H3915-AA): -1.06
- interaction score (4H3974-AA): 2.16
- interaction score (4H432-AA): -1.57
- interaction score (4H446-AA): -1.39
- interaction score (4H63-AA): -1.09
Binder: DENAALEAKNAALEAKIAALKAEIAALEG [4H1449-AA]

- interaction score (P3SHb): 0.389
- interaction score (P4SHb): 1.16
- interaction score (P5SHb): 0.636
- interaction score (P6SHb): 0.81
- interaction score (P7SHb): 0.504
- interaction score (P8SHb): -0.0984
- interaction score (P9SHb): 0.0235
Binder: DEIKELEEEIRELEEKNEELKRKNEWLKR [P3SHb]

- interaction score (N6-AA): 1.66
Binder: DKIAALKAEIAALEAENAALEAKIAALKG [N6-AA]
